Measured values reported in PMC3089569 (The Journal of Biological Chemistry, 2011).

Biological target: N-terminal histidine-tagged full-length mouse eIF4AI (mouse, UniProt P60843 1-406)
Experiment: SPR

Sequence of N-terminal histidine-tagged full-length mouse eIF4AI (P60843 whole entry): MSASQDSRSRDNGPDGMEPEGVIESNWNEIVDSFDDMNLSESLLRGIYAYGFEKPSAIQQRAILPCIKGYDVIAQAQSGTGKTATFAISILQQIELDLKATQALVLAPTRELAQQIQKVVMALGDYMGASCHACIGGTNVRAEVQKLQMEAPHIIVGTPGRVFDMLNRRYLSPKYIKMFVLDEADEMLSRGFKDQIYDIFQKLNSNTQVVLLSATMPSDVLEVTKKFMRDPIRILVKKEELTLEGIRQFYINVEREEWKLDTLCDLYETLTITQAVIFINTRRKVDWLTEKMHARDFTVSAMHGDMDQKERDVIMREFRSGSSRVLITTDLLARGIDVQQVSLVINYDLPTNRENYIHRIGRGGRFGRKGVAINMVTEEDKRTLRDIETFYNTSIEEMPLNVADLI

B1: GST-MA-3M-C fusion protein (tandem MA-3 region of mouse Pdcd4, residues 157-449) (domain or fragment, UniProt Q61823 157-449, looked up)
chain: LPLDETAFEKTLTPIIQEYFEHGDTNEVAEMLRDLNLGEMKSGVPVLAVSLALEGKASHREMTSKLLSDLCGTVMSTNDVEKSFDKLLKDLPELALDTPRAPQLVGQFIARAVGDGILCNTYIDSYKGTVDCVQARAALDKATVLLSMSKGGKRKDSVWGSGGGQQPVNHLVKEIDMLLKEYLLSGDISEAEHCLKELEVPHFHHELVYEAIVMVLESTGESAFKMILDLLKSLWKSSTITIDQMKRGYERIYNEIPDINLDVPHSYSVLERFVEECFQAGIISKQLRDLCPS
In the case of B1, the Kd is reported as 0.167 µM.
